Results published in patent US11098109B2, “Single-chain variable fragment anti-CD133 antibodies and uses thereof” (REGENTS OF THE UNIVERSITY OF MINNESOTA, priority 2010, dated 2021).

T1: human prominin-1 (Homo sapiens, UniProt O43490, DEL381-611)
T1 construct: His-tag (6xHis) (N); made in house
T1 sequence (O43490 with tags, fused parts or gaps DEL381-611): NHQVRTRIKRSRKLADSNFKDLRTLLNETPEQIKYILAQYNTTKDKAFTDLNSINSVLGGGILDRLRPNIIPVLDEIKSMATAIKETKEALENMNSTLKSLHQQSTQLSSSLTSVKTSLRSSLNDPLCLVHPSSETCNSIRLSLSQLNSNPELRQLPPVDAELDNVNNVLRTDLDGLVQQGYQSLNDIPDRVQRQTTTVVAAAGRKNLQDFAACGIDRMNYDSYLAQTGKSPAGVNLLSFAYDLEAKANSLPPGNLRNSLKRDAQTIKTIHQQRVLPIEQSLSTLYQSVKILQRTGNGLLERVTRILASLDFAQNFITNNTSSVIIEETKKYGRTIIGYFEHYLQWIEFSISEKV

T2: CD133 (Homo sapiens, UniProt O43490)
T2 construct: endogenous in cells
T2 sequence (O43490 20-865): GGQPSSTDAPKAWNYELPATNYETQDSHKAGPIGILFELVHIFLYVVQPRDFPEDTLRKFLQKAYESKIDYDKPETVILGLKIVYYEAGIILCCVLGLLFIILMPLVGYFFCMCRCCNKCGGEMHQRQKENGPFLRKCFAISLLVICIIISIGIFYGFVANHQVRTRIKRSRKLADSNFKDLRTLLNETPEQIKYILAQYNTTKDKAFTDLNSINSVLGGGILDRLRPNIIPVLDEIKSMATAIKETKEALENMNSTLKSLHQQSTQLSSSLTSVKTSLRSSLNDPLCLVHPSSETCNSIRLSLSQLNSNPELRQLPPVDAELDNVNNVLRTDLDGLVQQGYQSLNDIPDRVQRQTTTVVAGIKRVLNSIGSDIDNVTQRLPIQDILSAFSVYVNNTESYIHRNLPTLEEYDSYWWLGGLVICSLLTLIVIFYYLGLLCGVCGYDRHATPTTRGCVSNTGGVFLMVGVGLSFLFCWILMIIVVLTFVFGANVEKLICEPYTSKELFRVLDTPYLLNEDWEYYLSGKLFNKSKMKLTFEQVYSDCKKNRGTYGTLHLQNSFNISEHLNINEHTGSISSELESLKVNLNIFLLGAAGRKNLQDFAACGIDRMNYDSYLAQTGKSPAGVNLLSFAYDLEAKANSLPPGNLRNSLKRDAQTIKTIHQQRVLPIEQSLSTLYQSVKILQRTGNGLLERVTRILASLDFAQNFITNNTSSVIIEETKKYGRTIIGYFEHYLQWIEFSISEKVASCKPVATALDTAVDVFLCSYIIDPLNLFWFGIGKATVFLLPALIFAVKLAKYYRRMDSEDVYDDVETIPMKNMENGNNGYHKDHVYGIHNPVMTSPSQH


Assays:
[1] = biological target: T1, human prominin-1; assay: Soluble scFv ELISA; type: binding; details: for binding specificity in soluble scFv ELISA: scFv from culture medium and periplasmic space
Protocol: A single colony was picked from No. 11 DNA transformed Top10F′ E. coli LB-Amp plate in and used to inoculate 25 mL LB medium with 100 μg/mL Amp. The culture was shaken at 37° C. at 250 rpm overnight.
The 25 mL overnight culture was diluted to 500 mL LB containing Amp and was shaken at 37° C. at 250 rpm for about two hours until the OD600 reached 0.5 to 0.7. IPTG was added to a final concentration of 1 mM. The culture was shaken at 30° C. overnight.
The culture was centrifuged at 5.000 g for 20 minutes at 4° C. The supernatant was kept for ELISA.
The cell pellet was completely suspended with 50 mL ice-cold PBS containing protease inhibitors (1 mM PMSF), and was sonicated on ice in short bursts. The power setting was 7 min, 40% power cycle 5 (HD2200 W/MS 73). Triton X-100 was added to the cell lysate to a final concentration of 1% and was mixed gently for 30 minutes at room temperature to aid in solubilization of the fusion protein.
The mixture was centrifuged at 15,000 rpm (Heraeus #3334 rotor) for 30 minutes at 4° C., and the supernatant was taken for ELISA.
The 2 supernatants were diluted (one is from overnight culture supernatant, and the other is from overnight culture pellet) containing soluble mouse scFv with equal volume of 5% milk and were incubated for 10 minutes at room temperature.
100 μL of the diluted scFv was added to each well (coated with human prominin-1), and incubated for one hour at 37° C.
The plate was washed five times.
50 μL per well of diluted secondary antibody conjugate at 1:2.000 (HOURP-conjugated anti-HA, diluted in 5% milk) was added, and incubated for one hour at 37° C.
50 μL/well TMB substrate was added for detection, and incubated for 30 minutes at room temperature.
Soluble scFv ELISA was performed to confirm the binding specificity to the target protein. Here, the expressed scFv was captured by human prominin-1 pre-coated plate, and the binding of the soluble scFv fused with HA tag was detected with anti-HA Ab-HOURP conjugate. […] Supernatant and pellet are test samples. PC means positive control, hybridoma secreted antibody (diluted at 1:2000) was used. BLK means blank.

[2] = biological target: T2, CD133; assay: Immunohistochemistry of human glioma and kidney tissue sections; type: binding
Protocol: 5 μm paraffin sections of human kidney or glioblastoma tissue were mounted onto charged slides. The sections were deparaffinized and rehydrated using standard methods, rinsed in running tap-water and placed in a PBS bath for five minutes. The slides were then incubated in a pre-heated steamer bath with staining dish containing EDTA buffer (pH 8.0) for 30 minutes and then cooled for 20 minutes. The slides were washed with PBS (pH 7.4) for minimum of five minutes and then subjected to following incubation steps: blocking with serum-free background Sniper (Biocare Medical. Concord, Calif.), primary antibody at a 1:200 dilution of hybridoma supernatant at 4° C. overnight, Leica Bond post primary. Leica Bond polymer, and DAB chromagen developer. The sections were rinsed well, counterstained with hematoxylin, dehydrated, sealed with a cover slip and imaged.

| Molecule | A450, Supernatant ([1]; culture supernatant of Top10F' E. coli) | A450, Pellet ([1]; lysate of culture pellet (periplasmic space)) | binding specificity in soluble scFv ELISA [1] | binding specificity in soluble scFv ELISA ([1]; listed as Recombinant Clone 11 scFv) | immunohistochemical staining [2] | A450, Positive Control ([1]; hybridoma secreted antibody diluted at 1:2000) |
| --- | --- | --- | --- | --- | --- | --- |
| No. 11 scFv: soluble scFv of the Hybridoma Clone 7 antibody expressed in E. coli Top10F', SEQ ID NO:58; also used FITC-labeled (protein, optionally FITC-labeled; scFv polypeptide) scFv: MDIVLSQSPAIMSASPGEKVTISCSASSSVSYMYWYQQKPGSSPKPWIYRTSNLASGVPARFSGSGSGTSYSLTISSMEAEDAATYYCQQYHSYPPTFGAGTKLELKSSGGGGSGGGGGGSSRSSLEVKLVESGPELKKPGETVKISCKASGYTFTDYSMHWVNQAPGKGLKWMGWINTETGEPSYADDFKGRFAFSLETSASTAYLQINNLKNEDTATYFCATDYGDYFDYWGQGTTLTVSS | 0.9 | 1.4 | confirmed specific for human prominin-1 protein | specific for human CD133 | – | – |
| Hybridoma Clone 7: monoclonal antibody produced by Hybridoma Clone 7 that specifically binds to human CD133 (antibody, V domains shown) VL: DIVLSQSPAIMSASPGEKVTISCSASSSVSYMYWYQQKPGSSPKPWIYRTSNLASGVPARFSGSGSGTSYSLTISSMEAEDAATYYCQQYHSYPPTFGAGTKLELK VH: LEVKLVESGPELKKPGETVKISCKASGYTFTDYSMHWVNQAPGKGLKWMGWINTETGEPSYADDFKGRFAFSLETSASTAYLQINNLKNEDTATYFCATDYGDYFDYWGQGTTLTVSS | – | – | – | – | membrane-specific staining | 1.9 |
